Here are results for 2 molecules from patent publication CN113150156A (ZHEJIANG BORUI BIOPHARMACEUTICAL CO LTD, dated 2021).

For assay [1], the target named is T1, 生物素标记的TIGIT (Acrobiosystems, TIT-H82E5) (UniProt Q495A1).
T1 sequence (biotin-labelled (生物素标记), site not stated, looked up): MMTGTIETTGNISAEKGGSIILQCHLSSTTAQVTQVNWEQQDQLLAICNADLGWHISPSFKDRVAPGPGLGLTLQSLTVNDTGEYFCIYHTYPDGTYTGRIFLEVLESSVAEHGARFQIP
Nature of the assay: competition ELISA, control IgG, inhibition of biotinylated TIGIT binding to coated CD155.

The target in assay [2] is T2, 生物素标记的TIGIT (Acrobiosystems, TIT-H82E5) (UniProt Q495A1 22-141, biotin-labelled (生物素标记), site not stated).
T2 sequence (looked up): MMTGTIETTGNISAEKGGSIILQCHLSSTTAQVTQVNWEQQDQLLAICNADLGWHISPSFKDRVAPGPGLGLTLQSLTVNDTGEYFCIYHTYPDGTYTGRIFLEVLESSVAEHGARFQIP
Nature of the assay: competition ELISA, blocking of biotinylated TIGIT binding to coated CD112.

The target of assay [3] is T3, TIGIT on 293T-TIGIT cells (UniProt Q495A1 22-244).
T3 construct: whole, on cells; also called 细胞膜上TIGIT; 293T-TIGIT细胞
T3 sequence (looked up): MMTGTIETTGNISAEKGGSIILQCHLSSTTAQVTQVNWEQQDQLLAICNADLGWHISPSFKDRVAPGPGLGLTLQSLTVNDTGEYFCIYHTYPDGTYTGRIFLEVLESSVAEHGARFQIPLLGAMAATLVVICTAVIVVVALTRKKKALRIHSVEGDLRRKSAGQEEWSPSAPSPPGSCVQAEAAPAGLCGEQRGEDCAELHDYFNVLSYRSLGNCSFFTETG
The assay can be described thus: flow cytometry on 293T-TIGIT cells, FITC goat anti-mouse IgG detection.

The target of assay [4] is T2, 生物素标记的TIGIT (Acrobiosystems, TIT-H82E5). The assay can be described thus: competition ELISA, blocking of biotinylated TIGIT binding to coated CD155.
The target of assay [5] is T4, 人TIGIT蛋白 (Acrobiosystems, TIT-H52H3) (human, UniProt Q495A1 22-141).
T4 construct: Bought recombinant protein coated on ELISA plates
T4 sequence (looked up): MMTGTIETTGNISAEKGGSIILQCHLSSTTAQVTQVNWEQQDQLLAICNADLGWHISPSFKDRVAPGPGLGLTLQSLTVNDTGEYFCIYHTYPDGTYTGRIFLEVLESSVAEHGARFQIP
The assay can be described thus: ELISA, human TIGIT protein coated at 0.5 μg/ml, goat anti-mouse IgG detection.

IgG1 (antibody) yielded a 抑制率(%) in assay [1] of 1.68%.

B1: 7D3 (antibody, V domains shown)
VH: EVQLQQSGPELVKPGASVKMSCKASGYTFTSYVMHWVKQKPGQGLEWIGYINPYNDGTKYNEKFKGKATLTSDKSSSTAYMELSSLTSEDSAVYYCARRGNGPLRVFAYWGQGTTVTVSS
VL: DIVMTQTPKFMSTSVGDRVSITCKASQDVSTAVAWYQQKPGQSPKLLIYSASYRYTGVPDRFTGSGSGTDFTFTISSVQAEGLAVYYCQQHYSTPPTFGAGTKLEIK
notes: Mouse monoclonal antibody from a hybridoma (BALB/c x SP2/0); also called 鼠源抗体; 鼠源抗TIGIT抗体7D3
With B1, the values for the IC50 in assay [2] and in assay [4] were 3.97 nM and 0.804 nM, respectively. Moreover, the values for the EC50 in assay [3] and in assay [5] were 0.0113 nM and 0.108 nM, respectively.
